Type in all cases: cell-based
Test [1] has as its system NF-κB p50. As to the kind of experiment: NF-κB p50 activity in nuclear extracts of Jurkat cells (TransAM NF-κB family ELISA). The method, then:
(§1) FIGS. 7A-7D are graphs showing the kinetics of HRF-mediated induction of NF-κB activity. Jurkat or latently HIV-1 infected CA5 T cells were stimulated with optimal concentrations of PMA and HRF, and cells were harvested at the indicated time points. Nuclear extracts were generated and (FIGS. 7A and 7C) NF-κB p50 activity and (FIGS. 7B and 7D) NF-κB p65 activity were determined using the TransAM™ NF-κB family ELISA kit (Active Motif; Carlsbad, Calif.).
(§2) Cells were grown in RPMI medium supplemented with 10% FBS and 1% PSG to approximately 5×10^5 cells per milliliter. Cells were centrifuged and resuspended in fresh pre-warmed medium. PMA, HRF and/or JNKiV were added immediately at the indicated concentrations. The final cell density for the assay was 1×10^6 cells per milliliter. The culture flasks were kept in a humidified CO2 incubator at 37° C. For each time point, a 1 ml cell suspension was removed and immediately centrifuged at full speed in a tabletop centrifuge for 30 seconds. […] The protein concentration of the extracts was determined by using the BCA protein assay Kit (ThermoFisher). […] The absorbance at 595 nm was determined using a 96 well plate reader (Synergy HT, BIO-Tek; Winooski, Vt.).
(§3) NF-κB activity in nuclear extracts was quantified using the TransAM™ NF-κB family ELISA kit from Active Motif, Inc. (Carlsbad, Calif.) according to the manufacturer's instructions.
(In general: ELISA stands for enzyme-linked immunosorbent assay.)

Another test relates to NF-κB p65. The test can be described thus: NF-κB p65 activity in nuclear extracts of Jurkat cells (TransAM NF-κB family ELISA). How it is done:
as §1, §2, §3

The test system of test [2] is NF-κB p50. As to the kind of experiment: NF-κB p50 activity in nuclear extracts of latent CA5 T cells (TransAM NF-κB family ELISA). How it is done:
as §1, §2, §3

A further test has as its system NF-κB. The test can be described thus: NF-κB activity measured by GFP production in Jurkat T cells. To be noted: compared with Salmonella typhimurium flagellin.

B1: HRF: flagellin polypeptide from Massilia timonae (SEQ ID NO:10), used as bacterial culture supernatant (protein)
chain: MASVINTNVPSLNSQRNLSTSQAQLNTSIQRLSSGMRINSAKDDAAGLAISDRMNSQIKGMTQATRNANDGVSMAQTAEGALSSSGDILQRIRELAVQSSNSSNSASDRKALQTEVTQLSSELNRIANTTEFNGQKLMDGTLGTANFQVGANAGQLISMTGANFNTSVYGNNQIAGDAAKAAATTSAAATGAFTISGYLGTSAAINTTDADTAKTIAASINNVTGDTGVTATARTDSFLKSAGGAHTMSLASDNSGTGEAVDISFTVGDGGDTADDYAAAISAFNAQTAKTGVTAEYDAVEKGLKLTNSAGENISLTNKAGSADIDMDTYAADGALMASALTLEAGDVGVANGRVTMDSEKSFSVAEGTDTGFELADSSALKSVAKIDISDFEGAQEAIKVADAALSAVNSQRAEYGALQSRFESAISNLSSSTENLSASRSRIVDTDFAAETAKMTRGQILQQAGTSMLAQANSLPNGVLSLLRG
As to B1, the “NF-κB p50 activation amplitude compared to PMA stimulation” value in the test with NF-κB p50 [1] (Jurkat cells) is given as ~3 fold. Besides, the “duration of induced NF-κB activity in comparison to PMA” value in the test on NF-κB p50 [1] (parental Jurkat T cells) is on record as “less sustained”. For the same molecule, the “NF-κB p65 activation amplitude compared to PMA stimulation” value in the test with NF-κB p65 is given as ~3 fold. For the same molecule, the “NF-κB p50 activity after the first 4 hours” value with NF-κB p50 [2] is given as “stabilizes at an elevated level”. Further, the “NF-κB activity and NF-κB driven gene expression” value with NF-κB is “lower levels of NF-κB activity and NF-κB driven gene expression than flagellin from Salmonella typhimurium”.

(Values after patent publication US20140295012A1, “LATENT HUMAN IMMUNODEFICIENCY VIRUS REACTIVATION” (priority 2011, published 2014).)
